From PMC12207370, “Macrocyclic Peptide Probes for Immunomodulatory Protein CD59: Potent Modulators of Bacterial Toxin Activity and Antibody‐Dependent Cytotoxicity” (Angewandte Chemie (International Ed. in English), 2025)
Where two headings read alike, the source gives them in different places. Peptide text beside a SMILES is read from it.

Columns and labels:
CD59 = biological target: T1, CD59 (Homo sapiens, UniProt P13987); test: SPR (Biacore S200) binding to immobilised biotinylated CD59; details: Ala scan of CP-06, SPR, n = 1
T1 construct: Recombinant soluble human CD59 with an additional C-terminal cysteine residue
T1 sequence (P13987 26-102 limits assumed): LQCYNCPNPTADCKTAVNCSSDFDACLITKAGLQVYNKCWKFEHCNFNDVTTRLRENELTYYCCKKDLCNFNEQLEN
Source text: To identify which of these peptides bound CD59 most tightly, we used a Biacore S200 surface plasmon resonance (SPR) platform to investigate CD59 affinity (Figure 2b), using a known protein binding partner of CD59 (rILYd4) as a benchmark. Four 13‐mer macrocyclic peptides and one 14‐mer macrocyclic peptide were identified with a dissociation constant (K D) lower than that of rILYd4. Considering their fourfold lower molecular weight, these peptides bind with up to 19‐fold greater efficiency compared to rILYd4 (Figure 2b).
Equipment: SPR analysis was performed on a Cytiva Biacore S200. All buffers were prepared using ultra-pure water from a Millipore Elix Q-Gard purification system. Solutions and buffers were filtered with a 0.22 μm filter and degassed prior to use. The assays were performed on Series S streptavidin (SA) sensor chip (Cytiva). PBS-P+ buffer 10X (0.2 M phosphate buffer with 27 mM KCl, 1.37 M NaCl and 0.5% Surfactant P20 (Tween 20)) was used for the preparation of the assay running buffer (PBS-P+ 1X).
Immobilisation of CD59-biotin: Biotinylated CD59 was immobilised on the surface of a SA chip by non-covalent capture (biotin streptavidin interaction) as per the manufacturer’s instructions. The system was initially primed with running buffer and normalised using BIAnormalizing solution (70% (w/w) glycerol) (Cytiva). Before immobilising the protein, the surface was conditioned with three consecutive one-minute injections of 1 M NaCl in 50 mM NaOH. Biotinylated CD59 (0.5 µg/mL in running buffer) was flowed over the protein (active) channel for different contact times to achieve different immobilisation levels (600–1200 RU). After each protein injection, the needle and injection loop were washed using 50% isopropanol in 1 M NaCl and 50 mM NaOH. A reference channel was prepared by similar treatment; however, running buffer alone rather than CD59-biotin in running buffer was flowed over the chip the same way.
Interaction analysis: Multicycle kinetic and affinity approach was used for the analysis of peptides interactions with CD59. Two-fold serial dilutions of each peptide were prepared in running buffer and were flowed over both the ligand and reference channel using a flow rate (30 μL/min) at 25 °C. A zero concentration was added to each analyte series and three cycles of buffer were run between analytes to restore the baseline. The obtained sensorgrams were analysed using the embedded Biacore S200 Evaluation software. The data were normalised by subtracting RU values of the reference channel and zero concentration of the analyte series. Kinetic rate constants (kon and koff) were determined by fitting the normalised data using the built-in Kinetic analysis model (non-linear regression with a 1:1 Langmuir binding model), KD values were then calculated from the two rate constants ([…]). The KD values were determined again by fitting the normalised data using the built-in Affinity analysis model (1:1 Langmuir binding model).

biotinylated CD59 = biological target: T2, biotinylated CD59 (Homo sapiens, UniProt P13987); test: mRNA-display cyclic peptide screen against CD59-biotin, NGS abundance after 6th selection round; details: for Percentage Seq I: counts normalised by total counts of sample Seq I; for Percentage Seq I / Percentage Seq II: percentage of the pool; for Percentage Seq I / Percentage Seq II / Percentage Average / Percentage of the pool, averaged across the two sequencing samples / Percentage of the pool, Seq I / Percentage of the pool, Seq II: sheet R6; for Percentage Seq II: counts normalised by total counts of sample Seq II; for Percentage Average: percentage of the pool averaged across the two sequencing samples; for Counts Seq I / Counts Seq II: raw NGS counts of peptide sequence; for Counts Seq I: sequencing sample Seq I; for Counts Seq I / Counts Seq II / Counts (raw counts for peptide sequence), Seq I / Counts (raw counts for peptide sequence), Seq II: sheet R6 (6th selection round); for Counts Seq II: sequencing sample Seq II; for Counts (raw counts for peptide sequence), Seq I: NGS sample Seq I; for Counts (raw counts for peptide sequence), Seq II: NGS sample Seq II; for Percentage of the pool, averaged across the two sequencing samples: average of Seq I and Seq II; for Percentage of the pool, Seq I: counts normalised by total counts of NGS sample Seq I; for Percentage of the pool, Seq II: counts normalised by total counts of NGS sample Seq II
T2 construct: Recombinant soluble human CD59 with an additional C-terminal cysteine residue
T2 sequence (P13987 26-102 limits assumed): T1 sequence (P13987 26-102 limits assumed)
In short: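 Peptide–mRNA fusions were made by in vitro translation with a customised PURE express kit. The kit lacked release factor 1 and methionine and was supplemented with […] initiator tRNA carrying N-chloroacetyl-d-tyrosine. Thioether macrocycles were formed, then enriched and amplified over iterative rounds on CD59-biotin immobilised on streptavidin beads. NGS read counts per sequence were recorded after the 6th selection round.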

Compound | Kd (CD59; read-out: KD) [nM] | Percentage Seq I (biotinylated CD59) [%] | Percentage Seq II (biotinylated CD59) [%] | Percentage Average (biotinylated CD59) [%] | Counts Seq I (biotinylated CD59) | Counts Seq II (biotinylated CD59) | further results
CC(C)[C@@H]1NC(=O)[C@H](CO)NC(=O)[C@H](CO)NC(=O)[C@H](CCCNC(=N)N)NC(=O)[C@H](CC(N)=O)NC(=O)CNC(=O)[C@H](Cc2c[nH]c3ccccc23)NC(=O)[C@H]([C@@H](C)O)NC(=O)[C@H](Cc2c[nH]c3ccccc23)NC(=O)[C@H](CO)NC(=O)[C@@H](Cc2ccc(O)cc2)NC(=O)CSC[C@@H](C(N)=O)NC(=O)CNC(=O)[C@H](C)NC1=O [CP-06-R12A] (HELM PEPTIDE1{[O=C(C[*:3])[*:2]].[dY].S.W.T.W.G.N.R.S.S.V.A.G.C.[am]}$PEPTIDE1,PEPTIDE1,1:R3-15:R3$$$V2.0) | 97 | – | – | – | – | – | –
CC(C)[C@@H]1NC(=O)[C@H](CO)NC(=O)[C@H](C)NC(=O)[C@H](CCCNC(=N)N)NC(=O)[C@H](CC(N)=O)NC(=O)CNC(=O)[C@H](Cc2c[nH]c3ccccc23)NC(=O)[C@H]([C@@H](C)O)NC(=O)[C@H](Cc2c[nH]c3ccccc23)NC(=O)[C@H](CO)NC(=O)[C@@H](Cc2ccc(O)cc2)NC(=O)CSC[C@@H](C(N)=O)NC(=O)CNC(=O)[C@H](CCCNC(=N)N)NC1=O [CP-06-S9A] (HELM PEPTIDE1{[O=C(C[*:3])[*:2]].[dY].S.W.T.W.G.N.R.A.S.V.R.G.C.[am]}$PEPTIDE1,PEPTIDE1,1:R3-15:R3$$$V2.0) | 22 | – | – | – | – | – | –
CC(C)[C@@H]1NC(=O)[C@H](CO)NC(=O)[C@H](CO)NC(=O)[C@H](CCCNC(=N)N)NC(=O)[C@H](CC(N)=O)NC(=O)CNC(=O)[C@H](Cc2c[nH]c3ccccc23)NC(=O)[C@H]([C@@H](C)O)NC(=O)[C@H](Cc2c[nH]c3ccccc23)NC(=O)[C@H](C)NC(=O)[C@@H](Cc2ccc(O)cc2)NC(=O)CSC[C@@H](C(N)=O)NC(=O)CNC(=O)[C@H](CCCNC(=N)N)NC1=O [CP-06-S2A] (HELM PEPTIDE1{[O=C(C[*:3])[*:2]].[dY].A.W.T.W.G.N.R.S.S.V.R.G.C.[am]}$PEPTIDE1,PEPTIDE1,1:R3-15:R3$$$V2.0) | 13 | – | – | – | – | – | –
CC(C)[C@@H]1NC(=O)[C@H](C)NC(=O)[C@H](CO)NC(=O)[C@H](CCCNC(=N)N)NC(=O)[C@H](CC(N)=O)NC(=O)CNC(=O)[C@H](Cc2c[nH]c3ccccc23)NC(=O)[C@H]([C@@H](C)O)NC(=O)[C@H](Cc2c[nH]c3ccccc23)NC(=O)[C@H](CO)NC(=O)[C@@H](Cc2ccc(O)cc2)NC(=O)CSC[C@@H](C(N)=O)NC(=O)CNC(=O)[C@H](CCCNC(=N)N)NC1=O [CP-06-S10A] (HELM PEPTIDE1{[O=C(C[*:3])[*:2]].[dY].S.W.T.W.G.N.R.S.A.V.R.G.C.[am]}$PEPTIDE1,PEPTIDE1,1:R3-15:R3$$$V2.0) | 12 | – | – | – | – | – | –
C[C@@H]1NC(=O)[C@H](CO)NC(=O)[C@H](CO)NC(=O)[C@H](CCCNC(=N)N)NC(=O)[C@H](CC(N)=O)NC(=O)CNC(=O)[C@H](Cc2c[nH]c3ccccc23)NC(=O)[C@H]([C@@H](C)O)NC(=O)[C@H](Cc2c[nH]c3ccccc23)NC(=O)[C@H](CO)NC(=O)[C@@H](Cc2ccc(O)cc2)NC(=O)CSC[C@@H](C(N)=O)NC(=O)CNC(=O)[C@H](CCCNC(=N)N)NC1=O [CP-06-V11A] (HELM PEPTIDE1{[O=C(C[*:3])[*:2]].[dY].S.W.T.W.G.N.R.S.S.A.R.G.C.[am]}$PEPTIDE1,PEPTIDE1,1:R3-15:R3$$$V2.0) | – | – | – | – | – | – | Kd (CD59; read-out: PKD (converted)): 30.2 nM
CC(C)[C@@H]1NC(=O)[C@H](CO)NC(=O)[C@H](CO)NC(=O)[C@H](C)NC(=O)[C@H](CC(N)=O)NC(=O)CNC(=O)[C@H](Cc2c[nH]c3ccccc23)NC(=O)[C@H]([C@@H](C)O)NC(=O)[C@H](Cc2c[nH]c3ccccc23)NC(=O)[C@H](CO)NC(=O)[C@@H](Cc2ccc(O)cc2)NC(=O)CSC[C@@H](C(N)=O)NC(=O)CNC(=O)[C@H](CCCNC(=N)N)NC1=O [CP-06-R8A] (HELM PEPTIDE1{[O=C(C[*:3])[*:2]].[dY].S.W.T.W.G.N.A.S.S.V.R.G.C.[am]}$PEPTIDE1,PEPTIDE1,1:R3-15:R3$$$V2.0) | 18 | – | – | – | – | – | –
CC(C)[C@@H]1NC(=O)[C@H](CO)NC(=O)[C@H](CO)NC(=O)[C@H](CCCNC(=N)N)NC(=O)[C@H](CC(N)=O)NC(=O)[C@H](C)NC(=O)[C@H](Cc2c[nH]c3ccccc23)NC(=O)[C@H]([C@@H](C)O)NC(=O)[C@H](Cc2c[nH]c3ccccc23)NC(=O)[C@H](CO)NC(=O)[C@@H](Cc2ccc(O)cc2)NC(=O)CSC[C@@H](C(N)=O)NC(=O)CNC(=O)[C@H](CCCNC(=N)N)NC1=O [CP-06-G6A] (HELM PEPTIDE1{[O=C(C[*:3])[*:2]].[dY].S.W.T.W.A.N.R.S.S.V.R.G.C.[am]}$PEPTIDE1,PEPTIDE1,1:R3-15:R3$$$V2.0) | 235 | – | – | – | – | – | –
CC(C)[C@@H]1NC(=O)[C@H](CO)NC(=O)[C@H](CO)NC(=O)[C@H](CCCNC(=N)N)NC(=O)[C@H](C)NC(=O)CNC(=O)[C@H](Cc2c[nH]c3ccccc23)NC(=O)[C@H]([C@@H](C)O)NC(=O)[C@H](Cc2c[nH]c3ccccc23)NC(=O)[C@H](CO)NC(=O)[C@@H](Cc2ccc(O)cc2)NC(=O)CSC[C@@H](C(N)=O)NC(=O)CNC(=O)[C@H](CCCNC(=N)N)NC1=O [CP-06-N7A] (HELM PEPTIDE1{[O=C(C[*:3])[*:2]].[dY].S.W.T.W.G.A.R.S.S.V.R.G.C.[am]}$PEPTIDE1,PEPTIDE1,1:R3-15:R3$$$V2.0) | 209 | – | – | – | – | – | –
CRGNRFYQLSFH | – | 0.154 | 0.186 | 0.170 | 674 | 80 | –
CFSRRLTAGAV | – | 0.031 | 0.030 | 0.030 | 134 | 13 | –
LVRGDLYSVLG | – | – | – | – | – | – | Counts (raw counts for peptide sequence), Seq I (biotinylated CD59): 85; Counts (raw counts for peptide sequence), Seq II (biotinylated CD59): 7; Percentage of the pool, averaged across the two sequencing samples (biotinylated CD59): 0.018%; Percentage of the pool, Seq I (biotinylated CD59): 0.019%; Percentage of the pool, Seq II (biotinylated CD59): 0.016%
TILGNKHYVRG | – | 0.140 | 0.160 | 0.150 | 614 | 69 | –
FVSGNSRFRRE | – | 0.062 | 0.070 | 0.066 | 270 | 30 | –
LCYVKGSKNFT | – | 0.088 | 0.095 | 0.092 | 385 | 41 | –
CFSTRLSRSYGT | – | 0.016 | 0.026 | 0.021 | 68 | 11 | –
GYLNECHALYTR | – | – | – | – | – | – | Counts (raw counts for peptide sequence), Seq I (biotinylated CD59): 63; Counts (raw counts for peptide sequence), Seq II (biotinylated CD59): 9; Percentage of the pool, averaged across the two sequencing samples (biotinylated CD59): 0.018%; Percentage of the pool, Seq I (biotinylated CD59): 0.014%; Percentage of the pool, Seq II (biotinylated CD59): 0.021%
FISGSRSWRKQ | – | 0.036 | 0.023 | 0.030 | 159 | 10 | –
